Positions count from the first letter of the chain named. Numbers in names are those of the source.
B1: TfRANTIBODY-B HC-H4C/LC-L2 (C90S) hIgG1Fab′(1C) (Fab, V domains shown)
VH: QSLVESGGGVVQPGRSLRLSCKASGFSFSNSYWICWVRQAPGKGLEWVGCINTDADSTNYASWARGRFTISKTSSTTVYLQMNSLRAEDTAVYYCARQNNVFDPGYNLWGPGTLVTVSS
VL: ELVLTQSPSTLSASVGDRVTITCRASQNIGSNLAWYQQKPGKAPKLLIYDASKLESGVPSRFSGSGSGTEFTLTISSLQPDDFATYYCQSTVRGGAYGNAFGGGTKVEIKR
notes: also called ANTIBODY-B H4C/L2(C90S); H4C (C90S)/L2
B2: TfR1 ANTIBODY-B HC-H1C hIgG1 Fab′(1C)/LC-L2 hKappa (Fab, V domains shown)
VH: QSLVESGGGVVQPGRSLRLSCAASGFSFSNSYWICWVRQAPGKGLEWVGCINTDADSTNYADSVKGRFTISKDNSKNTVYLQMNSLRAEDTAVYYCARQNNVFDPGYNLWGQGTLVTVSS
VL: B1 VL with S90C
notes: also called ANTIBODY-B H1C/L2; TfRANTIBODY-B HC-H1C/LC-L2 hIgG1Fab′(1C)
B3: TfRANTIBODY-B HC-H1C/LC-L2 (C90T) hIgG1Fab′(1C) (Fab, V domains shown)
VH: B2 VH
VL: B1 VL with S90T
notes: also called ANTIBODY-B H1C/L2(C90T)
B4: TfRANTIBODY-B HC-H4C/LC-L2 (C90T) hIgG1Fab′(1C) (Fab, V domains shown)
VH: B1 VH
VL: B1 VL with S90T
notes: also called ANTIBODY-B H4C/L2(C90T); H4C (C90T)/L2
B5: TfRANTIBODY-B HC-H1C/LC-L2 (C90S) hIgG1Fab′(1C) (Fab, V domains shown)
VH: B2 VH
VL: B1 VL
notes: also called ANTIBODY-B H1C/L2(C90S)
B6: TfR1 ANTIBODY-B HC-H3C hIgG1 Fab′(1C)/LC-L2 hKappa (Fab, V domains shown)
VH: B2 VH with D62S, S63W, V64A, K65R, V79L
VL: B1 VL with S90C
notes: also called ANTIBODY-B H3C/L2; TfRANTIBODY-B HC-H3C/LC-L2 hIgG1Fab′(1C)

Experiments:
[1] = target: T1, human transferrin receptor 1 (TfR1), full length, expressed on cells (human, UniProt P02786 1-760); test: FACS on Ba/F3 cells, purified Fab
T1 construct: also called human TfR1; huTfR

[2] = target: T2, cynomolgus monkey transferrin receptor 1 (TfR1), full length, expressed on cells (cynomolgus monkey, UniProt Q5RDH6 1-760 (Pongo abelii entry)); test: FACS on Ba/F3 cells, purified Fab
T2 construct: also called cyno TfR1; cyTfR

[3] = target: T1, human transferrin receptor 1 (TfR1), …; test: FACS on Ba/F3 cells, Fab supernatant
[4] = target: T2, cynomolgus monkey transferrin receptor …; test: FACS on Ba/F3 cells, Fab supernatant
[5] = target: T1, human transferrin receptor 1 (TfR1), …; test: FACS on Ba/F3 cells, purified Fab; remark: listed apart in the source
[6] = target: T2, cynomolgus monkey transferrin receptor …; test: FACS on Ba/F3 cells, purified Fab; remark: listed apart in the source
[7] = target: T1, human transferrin receptor 1 (TfR1), …; test: FACS on Ba/F3 cells, Fab supernatant; remark: listed apart in the source
[8] = target: T2, cynomolgus monkey transferrin receptor …; test: FACS on Ba/F3 cells, Fab supernatant; remark: listed apart in the source
[9] = target: T1, human transferrin receptor 1 (TfR1), …; test: FACS on Ba/F3 cells, Fab supernatant; remark: listed apart in the source
[10] = target: T2, cynomolgus monkey transferrin receptor …; test: FACS on Ba/F3 cells, Fab supernatant; remark: listed apart in the source
[11] = target: T3, recombinant human TfR1 extracellular domain, His-tagged (human, UniProt P02786 89-760); test: SPR, TfR1 ECD-His captured, Fab injected, 1:1 fit
T3 construct: also called Human TfR1 ECD; human TfR1 ECD-His

[12] = target: T4, recombinant cynomolgus monkey TfR1 extracellular domain, His-tagged (cynomolgus monkey, UniProt Q5RDH6 87-760 (Pongo abelii entry)); test: SPR, TfR1 ECD-His captured, Fab injected, 1:1 fit
T4 construct: also called Cyno TfR1 ECD; cyno TfR1 ECD-His

Row | Binder | EC50 [1] [nM] | EC50 [2] [nM] | EC50 [3] [nM] | EC50 [4] [nM] | EC50 [5] [nM] | EC50 [6] [nM] | EC50 [7] [nM] | EC50 [8] [nM] | EC50 [9] [nM] | EC50 [10] [nM] | Kd [11] [nM] | koff [11] [s⁻¹] | kon [11] [M⁻¹ s⁻¹] | Kd [12] [nM] | koff [12] [s⁻¹] | kon [12] [M⁻¹ s⁻¹]
1 | B1 | 7.3 | 1.5 | 11.3 | 3.3 | – | – | – | – | – | – | – | – | – | – | – | –
2 | B2 | – | – | 5.9 | 2.3 | 8.2 | 2.3 | 3.8 | 2.8 | 10.1 | 2.8 | 6.7 | 0.00115 | 171000 | 1.3 | 0.000425 | 315000
3 | B3 | 13.6 | 3.2 | 12.6 | 5.4 | – | – | – | – | – | – | – | – | – | – | – | –
4 | B4 | 5.1 | 3.4 | 7.7 | 2.9 | – | – | – | – | – | – | – | – | – | – | – | –
5 | B5 | 6.1 | 3.2 | 14.9 | 4.4 | – | – | – | – | – | – | – | – | – | – | – | –
6 | B6 | – | – | 7 | 4 | 5.5 | 1.9 | 6.8 | 2.6 | – | – | 7.4 | 0.00147 | 200000 | 1.7 | 0.000608 | 348000

Reference: patent US20240158494A1 (Biogen, published 2024)
